Blank lines part the entries; values can stand above or below the binder they belong to.
Key:
[1] = biological target: T1, recombinant human VEGF165 (human, UniProt P15692-4 27-191, biotinylated in the competition assays); test: AlphaScreen, hVEGF165/hVEGFR2-Fc competition, -HSA
T1 construct: Bought protein; also called hVEGF165; rhVEGF165

[2] = biological target: T2, VEGF (used to stimulate HUVEC cells) (UniProt P15692-4 27-191, limits assumed); test: cell-based or functional assay
[3] = biological target: T1, recombinant human VEGF165; test: AlphaScreen, hVEGF165/hVEGFR1-Fc competition
Protocol: (§1) Finally, streptavidin donor beads (20 μg/ml) are added and after 1 hour of incubation in the dark, fluorescence is measured on the Envision microplate reader.
Target sequence in this assay (P15692 other isoform, or with tags, fused parts or gaps): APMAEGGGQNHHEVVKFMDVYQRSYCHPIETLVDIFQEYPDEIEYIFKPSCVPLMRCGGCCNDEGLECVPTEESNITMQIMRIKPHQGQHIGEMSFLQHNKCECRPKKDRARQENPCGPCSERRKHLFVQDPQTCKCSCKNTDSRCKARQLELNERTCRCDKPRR

[4] = biological target: T1, recombinant human VEGF165; test: binding ELISA, coated rhVEGF165
Target sequence in this assay (P15692 other isoform, or with tags, fused parts or gaps): as above

[5] = biological target: T1, recombinant human VEGF165; test: AlphaScreen, hVEGF165/hVEGFR1-Fc competition, -HSA
[6] = biological target: T3, recombinant human VEGF121 (human, UniProt P15692-9 27-147); test: binding ELISA, coated rhVEGF121
T3 construct: also called rhVEGF121
T3 sequence (looked up): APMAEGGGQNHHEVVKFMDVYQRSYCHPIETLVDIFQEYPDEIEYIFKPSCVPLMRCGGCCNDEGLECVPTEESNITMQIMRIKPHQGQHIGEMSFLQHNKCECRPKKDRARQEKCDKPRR
Protocol: Binding to recombinant human VEGF121 is assessed via a solid phase binding ELISA. […] Wells are blocked with a casein solution (1% in PBS).

[7] = biological target: T1, recombinant human VEGF165; test: ELISA, hVEGF165/hVEGFR2-Fc competition; set-up: % inhibition: concentration or dose not given beside the values
[8] = biological target: T1, recombinant human VEGF165; test: AlphaScreen, hVEGF165/hVEGFR2-Fc competition, -HSA; remark: listed apart in the source
[9] = biological target: T1, recombinant human VEGF165; test: ELISA, hVEGF165/hVEGFR1-Fc competition; set-up: % inhibition: concentration or dose not given beside the values
Target sequence in this assay (P15692 other isoform, or with tags, fused parts or gaps): as the sequence (P15692 other isoform, or with tags, fused parts or gaps) above

[10] = biological target: T1, recombinant human VEGF165; test: AlphaScreen, hVEGF165/hVEGFR2-Fc competition, +5 uM HSA
[11] = biological target: T4, recombinant mouse VEGF164 (mouse, UniProt Q00731-2 27-190, biotinylated as the labelled ligand of the mVEGF164/mVEGFR2 AlphaScreen); test: AlphaScreen, mVEGF164/mVEGFR2-hFc competition
T4 construct: also called mVEGF164; rmVEGF164
T4 sequence (looked up): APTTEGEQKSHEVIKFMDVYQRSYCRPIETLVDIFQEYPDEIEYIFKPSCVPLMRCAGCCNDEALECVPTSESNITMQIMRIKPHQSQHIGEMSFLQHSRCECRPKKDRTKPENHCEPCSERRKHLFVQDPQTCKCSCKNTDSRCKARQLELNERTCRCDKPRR
Protocol: Finally, streptavidin donor beads (20 μg/ml) are added and after 1 hour of incubation fluorescence is measured on the Envision microplate reader.

[12] = biological target: T1, recombinant human VEGF165; test: AlphaScreen, hVEGF165/hVEGFR1-Fc competition; set-up: % inhibition: concentration or dose not given beside the values
Protocol: as §1
Target sequence in this assay (P15692 other isoform, or with tags, fused parts or gaps): as the sequence (P15692 other isoform, or with tags, fused parts or gaps) above

[13] = biological target: T4, recombinant mouse VEGF164; test: binding ELISA, coated rmVEGF164
Protocol: Cross-reactivity to mouse VEGF164 is determined using a binding ELISA. […] Wells are blocked with a casein solution (1% in PBS). […] A mouse VEGF164 reactive mAb is included as positive control.

[14] = biological target: T1, recombinant human VEGF165; test: AlphaScreen, hVEGF165/hVEGFR2-Fc competition; set-up: % inhibition: concentration or dose not given beside the values
Protocol: as §1

[15] = biological target: T1, recombinant human VEGF165; test: SPR Biacore, immobilised hVEGF165, two state reaction model
Target sequence in this assay (P15692 other isoform, or with tags, fused parts or gaps): as the sequence (P15692 other isoform, or with tags, fused parts or gaps) above

[16] = biological target: T2, VEGF (used to stimulate HUVEC cells); test: cell-based or functional assay; remark: listed apart in the source
[17] = biological target: T1, recombinant human VEGF165; test: AlphaScreen, hVEGF165/hVEGFR2-Fc competition
Protocol: as §1
Target sequence in this assay (P15692 other isoform, or with tags, fused parts or gaps): as the sequence (P15692 other isoform, or with tags, fused parts or gaps) above

[18] = biological target: T5, human DLL4, full length, overexpressed on cells (human, UniProt Q9NR61 27-685); test: FMAT, hNotch1-Fc on CHO-hDLL4, +25 uM HSA
T5 construct: CHO cells in FMAT, HEK293 cells in the reporter assay; also called hDLL4; CHO-hDLL4

[19] = biological target: T5, human DLL4, full length, overexpressed …; test: FMAT, hNotch1-Fc on CHO-hDLL4, -HSA
[20] = biological target: T6, mouse DLL4, full length, overexpressed on CHO cells (mouse, UniProt Q9JI71 27-686); test: FMAT, hNotch1-Fc on CHO-mDLL4, -HSA
T6 construct: whole, on cells; also called mDLL4; CHO-mDLL4
T6 sequence (Q9JI71 27-686): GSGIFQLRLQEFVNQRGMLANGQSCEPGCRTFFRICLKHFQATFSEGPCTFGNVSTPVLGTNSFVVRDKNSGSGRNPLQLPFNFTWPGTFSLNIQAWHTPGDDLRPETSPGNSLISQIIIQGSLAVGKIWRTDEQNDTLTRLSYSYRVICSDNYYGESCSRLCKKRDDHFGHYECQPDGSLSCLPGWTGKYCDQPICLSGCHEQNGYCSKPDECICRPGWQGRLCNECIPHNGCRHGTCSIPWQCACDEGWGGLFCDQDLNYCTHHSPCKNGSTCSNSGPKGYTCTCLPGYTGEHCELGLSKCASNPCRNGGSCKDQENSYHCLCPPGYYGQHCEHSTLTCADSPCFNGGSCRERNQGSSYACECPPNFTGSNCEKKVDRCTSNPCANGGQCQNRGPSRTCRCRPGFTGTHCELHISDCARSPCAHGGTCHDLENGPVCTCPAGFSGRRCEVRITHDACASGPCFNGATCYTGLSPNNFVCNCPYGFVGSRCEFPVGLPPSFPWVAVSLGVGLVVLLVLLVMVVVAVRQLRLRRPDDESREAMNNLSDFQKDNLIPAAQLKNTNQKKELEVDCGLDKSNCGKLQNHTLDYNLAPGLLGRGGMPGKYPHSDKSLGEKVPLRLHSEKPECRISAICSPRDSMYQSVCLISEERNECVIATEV

[21] = biological target: T6, mouse DLL4, full length, overexpressed …; test: FMAT, hNotch1-Fc on CHO-mDLL4, +25 uM HSA
VEGFC = biological target: T7, VEGFC (UniProt P49767 103-227, limits assumed); test: binding ELISA on coated VEGFC (Example 12.8), OD 450 nm
T7 sequence (looked up): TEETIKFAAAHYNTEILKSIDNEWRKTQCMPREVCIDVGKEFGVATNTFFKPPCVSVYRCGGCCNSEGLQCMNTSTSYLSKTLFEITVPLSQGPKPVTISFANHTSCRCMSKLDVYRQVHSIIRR
Protocol: (§2) Binding to VEGFB, VEGFC, VEGFD and PIGF is assessed via a solid phase binding ELISA. […] Wells are blocked with a casein solution (1% in PBS). […] As positive controls serial dilutions of the appropriate receptors are taken along and detected with horseradish peroxidase (HRP)-conjugated goat anti-human IgG, Fc specific antibody (Jackson Immuno Research Laboratories Inc., West Grove, Pa., USA) and a subsequent enzymatic reaction in the presence of the substrate TMB (3,3′,5,5′-tetramentylbenzidine) (Pierce, Rockford, Ill., USA).

VEGFD = biological target: T8, VEGFD (UniProt O43915 93-201, limits assumed); test: binding ELISA on coated VEGFD (Example 12.8), OD 450 nm
T8 sequence (looked up): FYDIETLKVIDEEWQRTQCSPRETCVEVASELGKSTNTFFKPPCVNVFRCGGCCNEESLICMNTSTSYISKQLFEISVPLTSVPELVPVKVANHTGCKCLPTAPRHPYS
Protocol: as §2

VEGFB = biological target: T9, VEGFB (UniProt P49765-2 22-188, limits assumed); test: binding ELISA on coated VEGFB (Example 12.8), OD 450 nm
T9 sequence (looked up): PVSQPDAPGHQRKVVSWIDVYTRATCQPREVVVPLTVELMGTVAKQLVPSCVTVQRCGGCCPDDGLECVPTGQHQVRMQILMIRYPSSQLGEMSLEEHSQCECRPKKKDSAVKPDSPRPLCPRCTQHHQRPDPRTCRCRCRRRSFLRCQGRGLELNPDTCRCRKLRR
Protocol: as §2

PIGF = biological target: T10, PIGF (UniProt P49763-2 21-149, limits assumed); test: solid phase binding ELISA on coated PIGF (Example 12.8)
T10 construct: also called placenta growth factor
T10 sequence (looked up): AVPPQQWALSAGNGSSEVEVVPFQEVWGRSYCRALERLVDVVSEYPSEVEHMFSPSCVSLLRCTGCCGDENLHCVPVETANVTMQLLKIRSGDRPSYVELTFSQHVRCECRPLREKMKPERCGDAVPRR
Protocol: as §2

[22] = biological target: T11, mouse DLL4 overexpressed on cells (mouse, UniProt Q9JI71 27-686); test: FMAT, labelled hNotch1-Fc on CHO-mDLL4, periplasmic extract
T11 construct: whole, on cells; also called CHO-mDLL4; CHO-mDII4
T11 sequence (Q9JI71 27-686): as the sequence (Q9JI71 27-686) above
Excerpt: (§3) All calculations are based on the FL1_total signal which comprises the average of the fluorescence per well times the number of counts per well.

recombinant human DLL4 = biological target: T12, recombinant human DLL4 (human, UniProt Q9NR61 25-522); test: Biacore off-rate, periplasmic extract; single VHH, not bracketed
T12 construct: also called rhDLL4; hDLL4

[23] = biological target: T13, human DLL4 overexpressed on cells (human, UniProt Q9NR61 27-685); test: FMAT, labelled hNotch1-Fc on CHO-hDLL4, periplasmic extract
T13 construct: full length human DLL4 on CHO or HEK293 cells; also called CHO-hDLL4; CHO-hDII4
Excerpt: as §3

human VEGFR2-Fc chimera = biological target: T14, human VEGFR2-Fc chimera (human, UniProt P35968 20-764); test: ELISA, coated VEGF109
T14 construct: also called hVEGFR2-Fc; VEGFR2-huFc; not shown: human Fc part of the bought chimera; not described
T14 sequence (P35968 20-764, change not shown): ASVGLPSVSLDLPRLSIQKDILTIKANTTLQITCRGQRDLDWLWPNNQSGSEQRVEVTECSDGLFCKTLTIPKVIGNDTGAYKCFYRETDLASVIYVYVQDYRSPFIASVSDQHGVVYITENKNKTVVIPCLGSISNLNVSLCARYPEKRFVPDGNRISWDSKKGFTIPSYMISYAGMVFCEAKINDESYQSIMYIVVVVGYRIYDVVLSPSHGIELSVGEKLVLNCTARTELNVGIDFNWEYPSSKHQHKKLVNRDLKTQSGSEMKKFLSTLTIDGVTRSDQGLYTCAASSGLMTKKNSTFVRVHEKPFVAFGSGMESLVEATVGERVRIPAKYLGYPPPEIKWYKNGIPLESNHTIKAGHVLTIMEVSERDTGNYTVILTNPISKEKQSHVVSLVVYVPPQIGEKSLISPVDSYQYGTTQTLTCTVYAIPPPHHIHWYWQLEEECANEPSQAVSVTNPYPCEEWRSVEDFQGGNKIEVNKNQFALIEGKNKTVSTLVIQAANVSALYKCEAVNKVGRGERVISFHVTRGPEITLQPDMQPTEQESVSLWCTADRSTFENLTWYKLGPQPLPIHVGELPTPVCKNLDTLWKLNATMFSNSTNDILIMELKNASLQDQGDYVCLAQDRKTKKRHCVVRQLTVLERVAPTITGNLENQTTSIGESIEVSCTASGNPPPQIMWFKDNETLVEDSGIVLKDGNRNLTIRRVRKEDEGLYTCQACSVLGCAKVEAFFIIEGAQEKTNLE
Protocol: Cells are harvested by centrifugation and lysed by sonication of the cell pellet. Inclusion bodies are isolated by centrifugation. […] The refolded protein is purified by ion exchange chromatography using a MonoQ5/50GL (Amersham BioSciences) column followed by gel filtration with a Superdex75 10/300 GL column (Amersheim BioSciences). […] To this end, 1 μg/mL of recombinant human VEGF109 is immobilized overnight at 4° C. in a 96-well MaxiSorp plate (Nunc, Wiesbaden, Germany). Wells are blocked with a casein solution (1%).

T2 sequence (P15692 other isoform, or with tags, fused parts or gaps limits assumed): as the sequence (P15692 other isoform, or with tags, fused parts or gaps) above

% inh [1]: 100% | IC50 [1]: 0.05 nM | % inhibition, VEGF HUVEC proliferation assay [2]: 100% | IC50, VEGF HUVEC proliferation assay [2]: 0.34 nM | % inhibition [3]: 100% | IC50 [3]: 0.008 nM | EC50 [4]: 0.224 nM | % inh [5]: 87% | IC50 [5]: 0.07 nM | EC50 [6]: 0.54 nM | % inhibition [7]: 100% | IC50 [7]: 0.164 nM | % inh [8]: 100% | IC50 [8]: 0.017 nM | % inhibition [9]: 89% | IC50 [9]: 0.225 nM | IC50 [10]: 0.03 nM | IC50 [11]: 108 nM | % inhibition [12]: 98% | IC50 [12]: 0.009 nM | EC50 [13]: 0.464 nM | % inhibition [14]: 100% | IC50 [14]: 0.007 nM | Kd [15]: 0.14 nM | ka1 [15]: 1.2e+06 M⁻¹ s⁻¹ | ka2 [15]: 0.014 s⁻¹ | kd1 [15]: 0.0091 s⁻¹ | kd2 [15]: 0.00026 s⁻¹ | % inhibition, VEGF HUVEC Erk phosphorylation assay [16]: 94% | IC50, VEGF HUVEC Erk phosphorylation assay [16]: 0.18 nM | IC50 [17]: 0.007 nM
B1: VEGFBII022 (VHH, not shown: small tags and cut ends)
chain: EVQLVESGGGLVQTGDSLRLSCEVSGRTFSSYSMGWFRQAQGKEREFVVAISKGGYKYDSVSLEGRFTISKDNAKNTVYLQINSLKPEDTAVYYCASSRAYGSSRLRLADTYEYWGQGTQVTVSSGGGGSGGGSEVQLVESGGGLVQPGGSLRLSCVASGIRFMSMAWYRQAPGKHRELVARISSGGTTAYVDSVKGRFTISRDNSKNTVYLQMNSLKAEDTAVYYCNTFSSRPNPWGAGTQVTVSS
notes: Bivalent (heterodimeric) anti-VEGF VHH; also called VEGFBII23B04-9GS-5B05

IC50 [18]: 7.1 nM | % inh [19]: 87% | IC50 [19]: 5.5 nM | % inh [20]: 99% | IC50 [20]: 2.4 nM | IC50 [21]: 2.8 nM
B2: DLLBII018 (VHH)
VHH: EVQLVESGGGLVQPGGSLRLSCAASGRTFSSYAMAWYRQAPGKEREYVAAIRWSGGTAYYADSVKGRFTISRDNAKNTVYLQMNSLRPEDTAVYYCANRAPDTRLAPYEYDHWGQGTLVTVSS

binding result (VEGFC): no binding (tested: 5e-7 M) | binding result (VEGFD): no binding (tested: 5e-7 M) | binding result (VEGFB): no binding (tested: 5e-7 M) | binding result (PIGF): no binding (tested: about 5e-7 M)
B3: VEGFBII010 (VHH)
chain: EVQLVESGGGLVQTGDSLRLSCEVSGRTFSSYSMGWFRQAQGKEREFVVAISKGGYKYDSVSLEGRFTISKDNAKNTVYLQINSLKPEDTAVYYCASSRAYGSSRLRLADTYEYWGQGTQVTVSSGGGGSGGGGSGGGGSGGGGSGGGGSGGGGSGGGGSEVQLVESGGGLVQTGDSLRLSCEVSGRTFSSYSMGWFRQAQGKEREFVVAISKGGYKYDSVSLEGRFTISKDNAKNTVYLQINSLKPEDTAVYYCASSRAYGSSRLRLADTYEYWGQGTQVTVSS
notes: homodimeric bivalent VHH; also called VEGFBII23B04-35GS-23B04

% inh [22]: 78% | koff (recombinant human DLL4): 0.02 s⁻¹ | % inh [23]: 85%
B4: DLLBII101F01 (VHH)
VHH: EVQLVESGGGLVQAGGSLRLSCAASGRTFSNYAMGWFRQAPGKEREFVAAISWSGGDTYYADSVKGRFTISRDNAKNTVCLQMNSLKPEDTAVYYCAASFQSGAAPGANFYDYWGQGTQVTVSS

binding result (human VEGFR2-Fc chimera): binds
B5: recombinant human VEGF109 (ligand, UniProt P15692 207-315, looked up)
chain: APMAEGGGQNHHEVVKFMDVYQRSYCHPIETLVDIFQEYPDEIEYIFKPSCVPLMRCGGCCNDEGLECVPTEESNITMQIMRIKPHQGQHIGEMSFLQHNKCECRPKKD
notes: residue numbers count on GenBank AAM03108.1; also called rhVEGF109

Reference: patent publication US20140120095A1 (Boehringer Ingelheim, published 2014)
